Assay results: patent publication US10538802B2, “Polypeptide substrate for the detection of von Williebrand factor cleaving protease ADAMTS13” (IMMUCOR GTI DIAGNOSTICS, INC., priority 2011, dated 2020)

Biological target: T1, ADAMTS13 (Homo sapiens, UniProt Q76LX8)
T1 construct: tissue Gen-Probe GTI Diagnostics (ATS-13 kit calibrators, controls and proficiency samples); George King Biomedical Inc. (FACT, A-FACT, B-FACT plasmas) ATS-13; host or cells: plasma
T1 sequence (Q76LX8 75-1427): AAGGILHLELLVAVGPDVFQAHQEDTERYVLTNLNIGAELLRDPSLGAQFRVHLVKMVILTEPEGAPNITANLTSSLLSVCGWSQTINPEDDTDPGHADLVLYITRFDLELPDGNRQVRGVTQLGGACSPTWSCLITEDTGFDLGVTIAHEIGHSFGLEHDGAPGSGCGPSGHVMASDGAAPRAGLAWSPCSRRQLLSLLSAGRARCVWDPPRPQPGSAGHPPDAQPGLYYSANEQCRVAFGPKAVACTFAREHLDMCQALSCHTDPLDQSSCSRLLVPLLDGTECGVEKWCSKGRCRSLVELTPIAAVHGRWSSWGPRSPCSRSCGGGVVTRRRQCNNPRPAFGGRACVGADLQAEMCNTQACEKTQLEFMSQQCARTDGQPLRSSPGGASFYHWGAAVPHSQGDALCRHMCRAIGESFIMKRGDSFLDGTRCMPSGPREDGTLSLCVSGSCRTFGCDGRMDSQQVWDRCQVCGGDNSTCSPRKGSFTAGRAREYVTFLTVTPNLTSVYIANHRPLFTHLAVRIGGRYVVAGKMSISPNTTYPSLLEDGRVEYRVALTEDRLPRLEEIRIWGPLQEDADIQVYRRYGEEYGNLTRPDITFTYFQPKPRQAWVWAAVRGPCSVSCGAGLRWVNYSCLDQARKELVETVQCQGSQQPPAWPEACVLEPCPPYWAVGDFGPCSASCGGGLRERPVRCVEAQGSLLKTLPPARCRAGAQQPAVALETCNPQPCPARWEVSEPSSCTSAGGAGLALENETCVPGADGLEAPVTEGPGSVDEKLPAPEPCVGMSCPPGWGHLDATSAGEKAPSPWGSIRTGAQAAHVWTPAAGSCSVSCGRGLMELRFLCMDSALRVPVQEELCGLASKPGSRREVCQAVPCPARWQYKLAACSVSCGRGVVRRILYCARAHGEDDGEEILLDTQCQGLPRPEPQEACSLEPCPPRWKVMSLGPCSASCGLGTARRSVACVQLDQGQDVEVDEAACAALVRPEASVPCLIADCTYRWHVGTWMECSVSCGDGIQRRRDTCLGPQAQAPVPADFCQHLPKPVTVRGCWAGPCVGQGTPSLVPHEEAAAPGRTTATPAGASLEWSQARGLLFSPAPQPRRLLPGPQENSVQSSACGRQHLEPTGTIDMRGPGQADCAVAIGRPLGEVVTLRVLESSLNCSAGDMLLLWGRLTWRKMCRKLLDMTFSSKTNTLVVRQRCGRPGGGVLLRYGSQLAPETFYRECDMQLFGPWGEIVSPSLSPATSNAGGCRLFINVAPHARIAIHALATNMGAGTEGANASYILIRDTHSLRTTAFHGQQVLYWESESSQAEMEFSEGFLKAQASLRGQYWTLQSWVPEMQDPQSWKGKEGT
Assay: ADAMTS13 activity assay with fluorogenic (FRET) polypeptide substrate and diluted plasma samples
Type: biochemical
Details: for % Normal ADAMTS13 Activity: 30 Minute Incubation Time: Table 5
Description: The procedure in this example was performed substantially as described in Kokame, K., Y. Nobe, Y. Kokubo, A. Okayama, and T. Miyata. 2005. FRETS-VWF73, a first fluorogenic substrate for ADAMTS13 assay. Br. J. Haematol. 129:93-100, but using SEQ ID NO: 1 in place of the 73 amino acid substrate described therein. The FRETS-VWF73 substrate solution was dissolved in 25% dimethyl sulphoxide/water to prepare the 100 microM stock solution. The GTI FRET4 SEQ ID NO: 1 was dissolved in 100% DMSO. Both substrates were diluted to equal concentrations using ATS-13 substrate buffer (Gen-Probe GT1 Diagnostics, Inc., U.S.A., Cat#ATS-13).
Plasma samples were diluted according to the ATS-13 Direction Insert using ATS-13 specimen diluent (Gen-Probe GTI Diagnostics, Inc., U.S.A., Cat# ATS-13). The diluted plasma samples were mixed with the diluted substrate and the fluorescence was read at 0, 5, 10, 15, 20, 30, 45 minutes using a Biotek FLX800 at the appropriate excitation and emission wavelengths for each substrate.
The fluorophore-quencher pair in the SEQ ID NO: 1 polypeptide substrate is FAM-5/TQ 2^Tm (Ex 485±20; Em 528±20; AAT Bioquest, Inc. Sunnyvale, Calif. U.S.A.). The fluorophore and quencher pair of FRETS-VWF73 (Nma/Dnp) described in Kokame has been substituted with FAM-5 and TQ_2 respectively in GTI_FRET4 SEQ ID NO: 1. Furthermore, in the SEQ ID NO: 1 polypeptide the position of the fluorophore (FAM-5) and quencher (TQ_2) has been swapped relative to the position of the fluorophore and quencher of the FRETS-VWF73 construct. Therefore, for GTI_FRET4 SEQ ID NO: 1, attachment of the fluorophore (FAM-5) occurs by substituting asparagine with cystine at position 15. The quencher (TQ_2) was attached by substituting glutamine with lysine at position 4 (FIG. 2 and Table 4).
For this experiment, substrate concentration and fluorescence reader settings determined on the previous experiment are used. The specimens tested (listed in Table 3), include a panel of proficiency samples prepared for use with ATS-13 (Gen-Probe GTI Diagnostics, Inc., U.S.A., Cat# ATS-13) which included samples with normal or deficient ADAMTS13 activity levels. In addition, six Factor Assay ConTrol plasma were used (2 FACT, 2 A-FACT and 2 B-FACT, from George King Biomedical Inc., Kansas, USA). The assays for the SEQ ID NO: 1 substrate and for the prior art FRETS-VWF73 assay were performed generally as according to the procedure described in Example 1. Substrate is prepared according to the conditions used for initial testing of the substrate, which prepared the molar amount of SEQ ID NO: 1 polypeptide substrate used in the assay to be equivalent to the molar amount of FRETS-VWF73 used in the prior art. The […] assays were read at 0, 5, 10, 15, 20, 30, 45 minutes.
Testing of substrate for cleavability by ADAMTS13 is determined as is generally described in Example 1. […]

DREKAPNLVYMVTGCPASDEIKRLPGDIQVVPIEVIGWPNAPILIQDEETLPREAPDLVLQR [GTI_FRET4]
time through which the calibration curve continued to be linear: ≤ 45 min
trend line of the calibration curve: linear
time at which the calculated % N ADAMTS13 activity plateaus (Example 1): 30 min
difference between Calibrator A (0% ADAMTS13 activity) and Calibrator E (100% ADAMTS13 activity), dynamic range (Example 1, at 30 minutes): approximately 34,000 RFU
difference between Calibrator A and E, dynamic range (Example 2, at 30 minutes): approximately 35000 RFU
% Normal ADAMTS13 Activity: 30 Minute Incubation Time (sample 5 (ATS13-5)): 7 % Normal
% Normal ADAMTS13 Activity: 30 Minute Incubation Time (sample 22 (ATS13-4)): 21 % Normal
% Normal ADAMTS13 Activity: 30 Minute Incubation Time (sample 50 (ATS13-3)): 47 % Normal
% Normal ADAMTS13 Activity: 30 Minute Incubation Time (sample 72 (ATS13-2)): 72 % Normal
% Normal ADAMTS13 Activity: 30 Minute Incubation Time (sample 90 (ATS13-1)): 92 % Normal
% Normal ADAMTS13 Activity: 30 Minute Incubation Time (sample A-FACT lot 900): 10 % Normal
% Normal ADAMTS13 Activity: 30 Minute Incubation Time (sample A-FACT lot 1284): 10 % Normal
% Normal ADAMTS13 Activity: 30 Minute Incubation Time (sample B-FACT lot 1114): 45 % Normal
% Normal ADAMTS13 Activity: 30 Minute Incubation Time (sample B-FACT lot 1266): 46 % Normal
% Normal ADAMTS13 Activity: 30 Minute Incubation Time (sample BCM2): 19 % Normal
% Normal ADAMTS13 Activity: 30 Minute Incubation Time (sample BCM2 HI): 12 % Normal
% Normal ADAMTS13 Activity: 30 Minute Incubation Time (sample BCM2 mixed): 51 % Normal
% Normal ADAMTS13 Activity: 30 Minute Incubation Time (sample CNTL): <Calibrator A
% Normal ADAMTS13 Activity: 30 Minute Incubation Time (sample CNTL HI): <Calibrator A
% Normal ADAMTS13 Activity: 30 Minute Incubation Time (sample CNTL mixed): 4 % Normal
% Normal ADAMTS13 Activity: 30 Minute Incubation Time (sample Calibrator A): 4 % Normal
% Normal ADAMTS13 Activity: 30 Minute Incubation Time (sample Calibrator B): 9 % Normal
% Normal ADAMTS13 Activity: 30 Minute Incubation Time (sample Calibrator C): 29 % Normal
% Normal ADAMTS13 Activity: 30 Minute Incubation Time (sample Calibrator D): 61 % Normal
% Normal ADAMTS13 Activity: 30 Minute Incubation Time (sample Calibrator E): 110 % Normal
% Normal ADAMTS13 Activity: 30 Minute Incubation Time (sample FACT lot 222e1): 111 % Normal
% Normal ADAMTS13 Activity: 30 Minute Incubation Time (sample FACT lot 1223): 107 % Normal
% Normal ADAMTS13 Activity: 30 Minute Incubation Time (sample NPP032206): >Calibrator E
% Normal ADAMTS13 Activity: 30 Minute Incubation Time (sample NPP032206 HI): 9 % Normal
% Normal ADAMTS13 Activity: 30 Minute Incubation Time (sample NPP032206 at 37C): 106 % Normal
% Normal ADAMTS13 Activity: 30 Minute Incubation Time (sample NPP032206 mixed): 57 % Normal
% Normal ADAMTS13 Activity: 30 Minute Incubation Time (sample Positive Control High): 50 % Normal
% Normal ADAMTS13 Activity: 30 Minute Incubation Time (sample Positive Control Low): 14 % Normal
% Normal ADAMTS13 Activity: 30 Minute Incubation Time (sample UAMS041609): 31 % Normal
% Normal ADAMTS13 Activity: 30 Minute Incubation Time (sample VF040901): 10 % Normal
Increase in Fluorescence Values (X minute - 0 minute Reading) (sample Calibrator A, 15 min): 676 RFU
Increase in Fluorescence Values (X minute - 0 minute Reading) (sample Calibrator A, 30 min): 843 RFU
Increase in Fluorescence Values (X minute - 0 minute Reading) (sample Calibrator A, 45 min): 921 RFU
Increase in Fluorescence Values (X minute - 0 minute Reading) (sample Calibrator A, 60 min): 1,166 RFU
Increase in Fluorescence Values (X minute - 0 minute Reading) (sample Calibrator A, 75 min): 1,013 RFU
Increase in Fluorescence Values (X minute - 0 minute Reading) (sample Calibrator A, 90 min): 959 RFU
% Normal ADAMTS13 Values Calculated Using GTI_FRET4 Substrate (sample Calibrator A, incubation 15 Minutes): 1 % Normal
% Normal ADAMTS13 Values Calculated Using GTI_FRET4 Substrate (sample Calibrator A, incubation 30 Minutes): 1 % Normal
% Normal ADAMTS13 Values Calculated Using GTI_FRET4 Substrate (sample Calibrator A, incubation 45 Minutes): 0 % Normal
% Normal ADAMTS13 Values Calculated Using GTI_FRET4 Substrate (sample Calibrator A, incubation 60 Minutes): 0 % Normal
% Normal ADAMTS13 Values Calculated Using GTI_FRET4 Substrate (sample Calibrator A, incubation 75 Minutes): 0 % Normal
% Normal ADAMTS13 Values Calculated Using GTI_FRET4 Substrate (sample Calibrator A, incubation 90 Minutes): 0 % Normal
Increase in Fluorescence Values (X minute - 0 minute Reading) (sample Calibrator B, 15 min): 1,765 RFU
Increase in Fluorescence Values (X minute - 0 minute Reading) (sample Calibrator B, 30 min): 3,000 RFU
Increase in Fluorescence Values (X minute - 0 minute Reading) (sample Calibrator B, 45 min): 4,164 RFU
Increase in Fluorescence Values (X minute - 0 minute Reading) (sample Calibrator B, 60 min): 5,358 RFU
Increase in Fluorescence Values (X minute - 0 minute Reading) (sample Calibrator B, 75 min): 6,468 RFU
Increase in Fluorescence Values (X minute - 0 minute Reading) (sample Calibrator B, 90 min): 7,581 RFU
% Normal ADAMTS13 Values Calculated Using GTI_FRET4 Substrate (sample Calibrator B, incubation 15 Minutes): 7 % Normal
% Normal ADAMTS13 Values Calculated Using GTI_FRET4 Substrate (sample Calibrator B, incubation 30 Minutes): 7 % Normal
% Normal ADAMTS13 Values Calculated Using GTI_FRET4 Substrate (sample Calibrator B, incubation 45 Minutes): 7 % Normal
% Normal ADAMTS13 Values Calculated Using GTI_FRET4 Substrate (sample Calibrator B, incubation 60 Minutes): 7 % Normal
% Normal ADAMTS13 Values Calculated Using GTI_FRET4 Substrate (sample Calibrator B, incubation 75 Minutes): 6 % Normal
% Normal ADAMTS13 Values Calculated Using GTI_FRET4 Substrate (sample Calibrator B, incubation 90 Minutes): 6 % Normal
Increase in Fluorescence Values (X minute - 0 minute Reading) (sample Calibrator C, 15 min): 6,178 RFU
Increase in Fluorescence Values (X minute - 0 minute Reading) (sample Calibrator C, 30 min): 11,701 RFU
Increase in Fluorescence Values (X minute - 0 minute Reading) (sample Calibrator C, 45 min): 16,807 RFU
Increase in Fluorescence Values (X minute - 0 minute Reading) (sample Calibrator C, 60 min): 21,705 RFU
Increase in Fluorescence Values (X minute - 0 minute Reading) (sample Calibrator C, 75 min): 26,685 RFU
Increase in Fluorescence Values (X minute - 0 minute Reading) (sample Calibrator C, 90 min): 32,209 RFU
% Normal ADAMTS13 Values Calculated Using GTI_FRET4 Substrate (sample Calibrator C, incubation 15 Minutes): 32 % Normal
% Normal ADAMTS13 Values Calculated Using GTI_FRET4 Substrate (sample Calibrator C, incubation 30 Minutes): 33 % Normal
% Normal ADAMTS13 Values Calculated Using GTI_FRET4 Substrate (sample Calibrator C, incubation 45 Minutes): 33 % Normal
% Normal ADAMTS13 Values Calculated Using GTI_FRET4 Substrate (sample Calibrator C, incubation 60 Minutes): 34 % Normal
% Normal ADAMTS13 Values Calculated Using GTI_FRET4 Substrate (sample Calibrator C, incubation 75 Minutes): 35 % Normal
% Normal ADAMTS13 Values Calculated Using GTI_FRET4 Substrate (sample Calibrator C, incubation 90 Minutes): 36 % Normal
Increase in Fluorescence Values (X minute - 0 minute Reading) (sample Calibrator D, 15 min): 10,887 RFU
Increase in Fluorescence Values (X minute - 0 minute Reading) (sample Calibrator D, 30 min): 20,626 RFU
Increase in Fluorescence Values (X minute - 0 minute Reading) (sample Calibrator D, 45 min): 29,206 RFU
Increase in Fluorescence Values (X minute - 0 minute Reading) (sample Calibrator D, 60 min): 37,289 RFU
Increase in Fluorescence Values (X minute - 0 minute Reading) (sample Calibrator D, 75 min): 44,543 RFU
Increase in Fluorescence Values (X minute - 0 minute Reading) (sample Calibrator D, 90 min): 53,613 RFU
